Where no end group is shown, it is not given here. The star is where a group is joined. 125I = radioactive iodine-125 label on the tyrosine, [125I]*
Columns and labels:
[1] = biological target: human Neuropeptide S receptor, wildtype (NPSR WT) (human) (UniProt Q6W5P4); assay: cell-based or functional assay
NPSR Ile^107 = biological target: T1, NPSR Ile^107 (Homo sapiens, UniProt Q6W5P4, N107I); assay: Intracellular Ca2+ mobilization (FLIPR) in HEK 293 cells stably expressing NPSR Ile107; assay type: cell-based; details: for agonist activity, Ca2+ mobilization: individual HEK 293 clone; for agonist potency compared to the human peptide: Ca2+ mobilization
T1 construct: The Ile^107 isoform of NPSR was generated by PCR using synthetic oligonucleotides and the Quik Change Site-Directed Mutagenesis kit from Stratagene; expressed in transfected cells
T1 sequence (Q6W5P4 1-371 N107I): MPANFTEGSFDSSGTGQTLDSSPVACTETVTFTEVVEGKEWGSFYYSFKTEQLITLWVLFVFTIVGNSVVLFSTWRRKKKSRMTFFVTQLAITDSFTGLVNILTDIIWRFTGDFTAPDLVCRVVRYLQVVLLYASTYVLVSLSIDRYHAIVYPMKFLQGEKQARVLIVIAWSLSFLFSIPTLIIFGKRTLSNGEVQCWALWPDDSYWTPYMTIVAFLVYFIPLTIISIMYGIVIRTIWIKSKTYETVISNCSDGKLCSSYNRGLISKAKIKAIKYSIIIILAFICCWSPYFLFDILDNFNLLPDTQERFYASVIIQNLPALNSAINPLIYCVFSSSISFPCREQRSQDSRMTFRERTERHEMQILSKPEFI
Procedure: (§1) Changes of agonist-induced intracellular Ca^2+ were measured using the FLIPR technology as described before (5, 6). NPS and truncated NPS peptides were a gift from Phoenix Pharmaceuticals (Belmont, Calif.). Dose-response curves were calculated using GraphPad Prism (Graph Pad, San Diego). Mean EC50 values of populations of stable clones expressing either wildtype or mutant NPSR were compared using unpaired t-test and p<0.05 was considered significant.
(§2) Two cells lines expressing similar levels (measured by radioligand binding; see below) of either NPSR WT or NPSR Ile were chosen for detailed analyses of pharmacological parameters. […] In order to investigate whether this tenfold increase in agonist potency at NPSR lie was a general property of the receptor protein we compared a large number of stable clones expressing either NPSR WT or NPSR Ile^107 by establishing dose-response curves for each construct and calculating mean EC50 values for the populations.

NPSR WT = biological target: T2, NPSR WT (Homo sapiens, UniProt Q6W5P4); assay: Intracellular Ca2+ mobilization (FLIPR) in HEK 293 cells stably expressing NPSR WT; assay type: cell-based; details: for agonist activity, Ca2+ mobilization: individual HEK 293 clone; for agonist potency compared to the human peptide: Ca2+ mobilization
T2 construct: The primary structure of the wildtype NPSR (NPSR WT) is identical to isoform A of GPRA; expressed in transfected cells
T2 sequence (Q6W5P4 1-371): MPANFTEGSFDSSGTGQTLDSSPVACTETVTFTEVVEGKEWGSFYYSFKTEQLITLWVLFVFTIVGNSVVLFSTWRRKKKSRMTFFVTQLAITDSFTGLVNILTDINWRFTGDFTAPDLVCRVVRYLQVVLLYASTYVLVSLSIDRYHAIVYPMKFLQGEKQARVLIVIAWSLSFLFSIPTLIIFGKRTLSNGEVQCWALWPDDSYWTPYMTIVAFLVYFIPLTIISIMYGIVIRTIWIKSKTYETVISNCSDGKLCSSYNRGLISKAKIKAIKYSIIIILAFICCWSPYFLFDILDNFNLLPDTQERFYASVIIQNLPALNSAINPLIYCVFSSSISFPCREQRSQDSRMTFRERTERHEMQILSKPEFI
Procedure: as §1, §2

[2] = single i.c.v. injection; cited from earlier work
rodents = details: cited from earlier work
human NPSR = biological target: T3, human NPSR (Homo sapiens, UniProt Q6W5P4); assay: Mobilization of intracellular Ca2+ (FLIPR) in HEK 293T cells stably expressing human NPSR; assay type: cell-based; details: for EC50: HEK 293T cells stably expressing human NPSR, read-out: EC50 for mobilization of [Ca2+]i
T3 construct: This receptor protein is identical to the NPSR that we have studied extensively for its pharmacology; expressed in transfected cells
T3 sequence (Q6W5P4 1-371): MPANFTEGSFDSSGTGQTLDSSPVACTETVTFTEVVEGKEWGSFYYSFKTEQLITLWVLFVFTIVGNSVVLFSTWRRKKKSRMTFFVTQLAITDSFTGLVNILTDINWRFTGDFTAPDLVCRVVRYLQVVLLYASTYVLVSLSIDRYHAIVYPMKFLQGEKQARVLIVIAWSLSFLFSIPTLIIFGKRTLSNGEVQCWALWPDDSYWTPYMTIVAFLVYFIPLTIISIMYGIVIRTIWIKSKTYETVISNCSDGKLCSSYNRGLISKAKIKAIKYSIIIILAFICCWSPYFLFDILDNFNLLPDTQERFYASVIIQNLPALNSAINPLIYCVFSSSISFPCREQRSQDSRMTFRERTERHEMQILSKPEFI
Procedure: Cell lines stably expressing human NPSR in both Chinese hamster ovary (CHO) cells and human embryonic kidney 293 T cells (HEK 293T) were used to define the pharmacological characteristics of NPS. […] HEK 293T cells and CHO dhfr(−) cells were transfected with the human NPSR cDNA cloned into pcDNA 3.1(+) using LipofectAmine. Stable clones were selected with 800 mg/l G418 and tested for mobilization of intracellular Ca^2+ with 100 nM NPS (generous gift of Phoenix Pharmaceuticals, Belmont, Calif.). Changes in intracellular Ca^2+ were measured in a fluorometric imaging plate reader system (FLIPR, Molecular Devices) as described before(Saito et al., 1999). Dose response curves for agonist activation were calculated from peak fluorescence values of triplicate incubations and EC50 values were calculated with Prism software (GraphPad, San Diego, Calif.).

[3] = biological target: T4, human Neuropeptide S receptor, wildtype (NPSR WT) (human, UniProt Q6W5P4 1-371); assay: cell-based or functional assay
T4 sequence: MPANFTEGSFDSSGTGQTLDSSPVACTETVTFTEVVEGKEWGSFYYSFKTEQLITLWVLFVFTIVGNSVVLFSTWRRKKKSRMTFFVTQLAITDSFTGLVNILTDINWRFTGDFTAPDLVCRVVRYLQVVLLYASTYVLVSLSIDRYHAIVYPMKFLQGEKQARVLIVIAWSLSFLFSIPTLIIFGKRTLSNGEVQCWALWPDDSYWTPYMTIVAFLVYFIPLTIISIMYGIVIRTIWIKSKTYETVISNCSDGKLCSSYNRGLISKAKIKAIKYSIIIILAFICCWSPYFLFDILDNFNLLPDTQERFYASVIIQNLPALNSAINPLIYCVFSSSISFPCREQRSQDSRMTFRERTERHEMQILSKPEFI

[4] = biological target: T5, human Neuropeptide S receptor Ile107 isoform (NPSR Ile107) (human, UniProt Q6W5P4 1-371); assay: saturation binding of [125I] Y10-NPS to stable clones, intact cells
T5 construct: also called NPSR lie; Asn107Ile variant
T5 sequence: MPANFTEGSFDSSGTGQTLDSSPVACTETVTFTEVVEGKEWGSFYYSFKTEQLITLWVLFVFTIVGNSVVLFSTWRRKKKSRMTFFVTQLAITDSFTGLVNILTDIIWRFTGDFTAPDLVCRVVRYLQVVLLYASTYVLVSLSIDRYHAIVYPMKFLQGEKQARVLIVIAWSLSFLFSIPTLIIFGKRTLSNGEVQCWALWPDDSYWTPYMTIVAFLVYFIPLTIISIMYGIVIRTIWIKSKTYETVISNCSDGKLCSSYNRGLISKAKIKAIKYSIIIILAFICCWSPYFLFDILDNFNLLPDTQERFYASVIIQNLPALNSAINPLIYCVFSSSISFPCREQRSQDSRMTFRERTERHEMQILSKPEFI

[5] = biological target: T4, human Neuropeptide S receptor, wildtype …; assay: as above
[6] = biological target: T5, human Neuropeptide S receptor Ile107 …; assay: saturation binding of [125I] Y10-NPS to stable clones, intact cells, average of n=4 clones
[7] = biological target: T4, human Neuropeptide S receptor, wildtype …; assay: as above
[8] = biological target: T4, human Neuropeptide S receptor, wildtype …; assay: saturation radioligand binding to intact CHO cells stably expressing hNPSR
Procedure: (§3) The monoiodinated form of Y^10-NPS was used as a radioligand in receptor binding experiments. […] No specific binding was detected in mock-transfected CHO cells.
(§4) CHO cells stably expressing human NPSR were seeded into 24-well plates and cultured for 48 hours. […] Nonspecific binding was determined in the presence of 1 µM unlabeled human NPS. The binding assay was carried out as described (Sakurai et al., 1998). In brief, cells were washed with PBS first and then incubated with radioligand with or without unlabeled NPS peptide in DMEM medium containing 0.1% bovine serum albumin at 20° C. for 1.5 h. Cells were washed 5 times with cold PBS and lysed with 1 N NaOH. Bound radioactivity was counted in a MicroBeta liquid scintillation counter (EG&G Wallac, Gaithersburg, Md.) and corrected for counting efficiency. Data from triplicate incubations were analyzed using PRISM.

[9] = biological target: T5, human Neuropeptide S receptor Ile107 …; assay: cell-based or functional assay
[10] = biological target: T4, human Neuropeptide S receptor, wildtype …; assay: displacement of 0.15 nM [125I] Y10-NPS from CHO cells stably expressing hNPSR by unlabeled human NPS
Procedure: as §3, §4

[11] = biological target: human Neuropeptide S receptor C-terminal splice variant (NPSR C-alt) (human), Q6W5P4; assay: cell-based or functional assay

## rat Neuropeptide S (from UniProt P0C0P7 70-89)
[1]
  EC50 for mobilization of [Ca2+]i, HEK 293T cells stably expressing human NPSR: 3.2 nM

## NPS 4-20: human NPS fragment with the three amino-terminal amino acids deleted (NGVGTGMKKTSFQRAKS)
NPSR Ile^107
  agonist activity, Ca2+ mobilization: completely abolished agonist activity
NPSR WT
  agonist activity, Ca2+ mobilization: completely abolished agonist activity

## NPS 1-10: human NPS fragment, residues 1-10, after deletion of the two lysines at positions 11 and 12 (SFRNGVGTGM)
NPSR Ile^107
  agonist activity, Ca2+ mobilization: full agonist activity
NPSR WT
  agonist activity, Ca2+ mobilization: full agonist activity

## Hcrt/Ox: neuropeptide hypocretin 1/orexin A, literature comparison (QPLPDCCRQKTCSCRLYELLHGAGNHAAGILTL; ends and bridges not checked; cysteine pairing not given here; UniProt O43612 34-66, looked up)
[2]
  duration of arousal: 2 to 3 h
rodents
  effect on anxiety-like behavior: no effect

## mouse Neuropeptide S (from UniProt P0C0P8 70-89)
[1]
  EC50 for mobilization of [Ca2+]i, HEK 293T cells stably expressing human NPSR: 3 nM

## SFRNGVGSGVKKTSFRRAKQ [rat NPS]
Human NPSR
  EC50: 3.2 ± 1.1 nM
NPSR Ile^107
  agonist potency compared to the human peptide: slightly more potent
NPSR WT
  agonist potency compared to the human peptide: slightly more potent

## SFRNGVGSGAKKTSFRRAKQ [mouse NPS]
Human NPSR
  EC50: 3 ± 1.3 nM
NPSR Ile^107
  agonist potency compared to the human peptide: slightly more potent
NPSR WT
  agonist potency compared to the human peptide: slightly more potent

## H-SFRNGVGTGYKKTSFQRAKS-OH [Human Y^10-NPS]
Human NPSR; human NPSR, Ca2+ mobilization
  agonist activity: full agonist activity

## NPS 1-12: carboxy-terminally truncated fragment of human NPS, residues 1-12 (SFRNGVGTGMKK)
NPSR Ile^107
  antagonist activity against activation by NPS 1-20: failed to block activation
  agonist activity, Ca2+ mobilization: full, but weakly potent, agonist
NPSR WT
  antagonist activity against activation by NPS 1-20: failed to block activation
  agonist activity, Ca2+ mobilization: almost completely lost agonist activity

## SFRNGVGTGYKKTSFQRAKS [Human Y10-NPS (unlabeled)]
[3]
  EC50, agonist activity (Ca2+ mobilization, data not shown): 6.7 nM

B1: [125I] Y10-hNPS (monoiodinated human Y10-NPS radioligand) (peptide)
peptide: SFRNGVGTGY(125I)KKTSFQRAKS
modifications: also: monoiodinated with 125I (chloramine T)
notes: Human NPS in which the residue at position 10 is replaced by tyrosine, then radioiodinated; also called Y10-NPS; the radioligand
[4]
  Kd: 0.17 to 0.4 nM
[5]
  Kd: 0.2 to 0.45 nM
[6]
  Kd: 0.403 nM
[7]
  Kd: 0.347 nM
[8]
  Kd: 0.33 nM

B2: human Neuropeptide S (hNPS) (peptide)
peptide: SFRNGVGTGMKKTSFQRAKS-OH
notes: 20-residue mature peptide with free C-terminus (-OH); also called human NPS; NPS 1-20
[9]
  EC50, CRE-luciferase reporter, transiently transfected HEK 293 cells: 17.3 nM
  EC50, MAPK phosphorylation, stable HEK cells: 0.32 nM
  EC50, cAMP formation, stable HEK clone: 3.45 nM
  EC50, intracellular free Ca2+, single stable HEK 293 clone: 1.4 nM
  mean EC50, NPS-induced CRE-luciferase reporter gene expression, n=21 stable HEK clones: 0.63 nM
  mean EC50, NPS-induced mobilization of intracellular Ca2+, n=21 stable clones: 1.01 nM
[3]
  EC50, CRE-luciferase reporter, transiently transfected HEK 293 cells: 76.6 nM
  EC50, MAPK phosphorylation, stable HEK cells: 1.23 nM
  EC50, cAMP accumulation, stable HEK clone: 31.9 nM
  EC50, increase in intracellular Ca2+ in cells stably expressing NPSR WT: 5 to 10 nM
  EC50, intracellular free Ca2+, single stable HEK 293 clone: 12.4 nM
  EC50 for mobilization of [Ca2+]i, HEK 293T cells stably expressing human NPSR: 9.4 nM
  mean EC50, NPS-induced CRE-luciferase reporter gene expression, n=7 stable HEK clones: 45.1 nM
  mean EC50, NPS-induced mobilization of intracellular Ca2+, n=16 stable clones: 13 nM
[10]
  IC50: 0.42 nM
[11]
  EC50, CRE-luciferase reporter, transiently transfected HEK 293 cells: 146 nM

Reference: US9012407B2, “Therapies which act on neuropeptide S receptors” (The Regents of the University of California, priority 2004, dated 2015)
